Experimental data from the supplement of paper PMC9112550, “Optimization of the antimicrobial peptide Bac7 by deep mutational scanning” (BMC Biology, 2022).

Tested on: Escherichia coli TOP10
Assay: shrunken log2 fold change of peptide-encoding DNA abundance (4.5 h post-induction vs induction); higher = less antimicrobial activity (less host growth inhibition)
Details: time post-induction: 4.5 h; library: site-saturation at positions 5, 18, 19, 20
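Further: peptides expressed intracellularly from a pBAD plasmid library in pooled LB shake-flask culture, induced with 0.3% L-arabinose, DNA abundance read by NGS, three biological replicates, DESeq2 with apeglm shrinkage.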

In order of falling “shrunken log2 fold change” value:
1. RRIRMRPPRLPRPRPRPPADPRP  2.99
2. RRIRVRPPRLPRPRPRPYEFPRP  2.15
3. RRIRARPPRLPRPRPRPPEEPRP  1.73
4. RRIRLRPPRLPRPRPRPSMTPRP  1.72
5. RRIRSRPPRLPRPRPRPAGTPRP  1.67
6. RRIRDRPPRLPRPRPRPPVFPRP  1.59
7. RRIRGRPPRLPRPRPRPVYWPRP  1.38
8. RRIRRRPPRLPRPRPRPDRWPRP  0.957
9. RRIRKRPPRLPRPRPRPVSAPRP  0.887
10. RRIRPRPPRLPRPRPRPPPTPRP  0.761
11. RRIRMRPPRLPRPRPRPSPQPRP  0.716
12. RRIRGRPPRLPRPRPRPEANPRP  0.632
13. RRIRGRPPRLPRPRPRPVLVPRP  0.628
14. RRIRERPPRLPRPRPRPGLGPRP  0.602
15. RRIRVRPPRLPRPRPRPRGSPRP  0.527
16. RRIRDRPPRLPRPRPRPEGRPRP  0.517
17. RRIRPRPPRLPRPRPRPRPMPRP  0.513
18. RRIRDRPPRLPRPRPRPPGSPRP  0.511
19. RRIRGRPPRLPRPRPRPFRFPRP  0.485
20. RRIRTRPPRLPRPRPRPQQWPRP  0.46
21. RRIRDRPPRLPRPRPRPVPPPRP  0.453
22. RRIRKRPPRLPRPRPRPAYWPRP  0.424
23. RRIRDRPPRLPRPRPRPAGMPRP  0.411
24. RRIRGRPPRLPRPRPRPENVPRP  0.328
25. RRIRTRPPRLPRPRPRPRKAPRP  0.326
26. RRIRSRPPRLPRPRPRPAPCPRP  0.308
27. RRIRMRPPRLPRPRPRPAKVPRP  0.303
28. RRIRPRPPRLPRPRPRPNGWPRP  0.296
29. RRIRSRPPRLPRPRPRPLPDPRP  0.266
30. RRIRPRPPRLPRPRPRPSQRPRP  0.229
31. RRIRWRPPRLPRPRPRPCRAPRP  0.217
32. RRIRARPPRLPRPRPRPDFVPRP  0.205
33. RRIRSRPPRLPRPRPRPPTHPRP  0.197
34. RRIRDRPPRLPRPRPRPAPFPRP  0.196
35. RRIRRRPPRLPRPRPRPFKAPRP  0.182
36. RRIRERPPRLPRPRPRPLARPRP  0.179
37. RRIRARPPRLPRPRPRPRHVPRP  0.162
38. RRIRRRPPRLPRPRPRPGKWPRP  0.152
39. RRIRRRPPRLPRPRPRPFACPRP  0.152
40. RRIRWRPPRLPRPRPRPGKQPRP  0.151
41. RRIRKRPPRLPRPRPRPRYFPRP  0.135
42. RRIRDRPPRLPRPRPRPEPYPRP  0.118
43. RRIRIRPPRLPRPRPRPQPWPRP  0.102
44. RRIRKRPPRLPRPRPRPQEDPRP  0.0977
45. RRIRNRPPRLPRPRPRPMQMPRP  0.0963
46. RRIRERPPRLPRPRPRPEWTPRP  0.0896
47. RRIRKRPPRLPRPRPRPQIIPRP  0.0891
48. RRIRDRPPRLPRPRPRPCWGPRP  0.0493
49. RRIRWRPPRLPRPRPRPLNTPRP  0.0456
50. RRIRPRPPRLPRPRPRPTGCPRP  0.0367
51. RRIRTRPPRLPRPRPRPFHDPRP  0.0356
52. RRIRCRPPRLPRPRPRPGGSPRP  0.0334
53. RRIRDRPPRLPRPRPRPVHFPRP  0.033
54. RRIRSRPPRLPRPRPRPMVSPRP  0.0287
55. RRIRKRPPRLPRPRPRPENGPRP  0.0267
56. RRIRFRPPRLPRPRPRPDHVPRP  0.0266
57. RRIRHRPPRLPRPRPRPVHSPRP  0.0246
58. RRIRDRPPRLPRPRPRPFQYPRP  0.0242
59. RRIRHRPPRLPRPRPRPLKLPRP  0.0187
60. RRIRHRPPRLPRPRPRPLKVPRP  0.0138
61. RRIRPRPPRLPRPRPRPWEDPRP  0.00408
62. RRIRMRPPRLPRPRPRPIIRPRP  0.0027
63. RRIRIRPPRLPRPRPRPDCCPRP  0.000204
64. RRIRQRPPRLPRPRPRPHFDPRP  -0.000826
65. RRIRKRPPRLPRPRPRPYHGPRP  -0.000893
66. RRIRRRPPRLPRPRPRPWIAPRP  -0.00369
67. RRIRIRPPRLPRPRPRPHKPPRP  -0.00445
68. RRIRMRPPRLPRPRPRPWVKPRP  -0.00556
69. RRIRFRPPRLPRPRPRPPQVPRP  -0.00567
70. RRIRDRPPRLPRPRPRPREIPRP  -0.00904
71. RRIRARPPRLPRPRPRPFGQPRP  -0.0155
72. RRIRFRPPRLPRPRPRPVNDPRP  -0.0167
73. RRIRHRPPRLPRPRPRPTTTPRP  -0.0186
74. RRIRDRPPRLPRPRPRPRYHPRP  -0.0202
75. RRIRMRPPRLPRPRPRPCRMPRP  -0.0205
76. RRIRRRPPRLPRPRPRPIQPPRP  -0.0245
77. RRIRFRPPRLPRPRPRPGRYPRP  -0.0275
78. RRIRERPPRLPRPRPRPAQIPRP  -0.0282
79. RRIRNRPPRLPRPRPRPDTYPRP  -0.0291
80. RRIRMRPPRLPRPRPRPPEYPRP  -0.035
81. RRIRKRPPRLPRPRPRPNIGPRP  -0.05
82. RRIRVRPPRLPRPRPRPDDRPRP  -0.0538
83. RRIRGRPPRLPRPRPRPRYDPRP  -0.057
84. RRIRDRPPRLPRPRPRPCPFPRP  -0.0587
85. RRIRQRPPRLPRPRPRPIMKPRP  -0.0798
86. RRIRNRPPRLPRPRPRPTCIPRP  -0.0808
87. RRIRDRPPRLPRPRPRPNAVPRP  -0.101
88. RRIRSRPPRLPRPRPRPKLNPRP  -0.103
89. RRIRSRPPRLPRPRPRPCIMPRP  -0.105
90. RRIRQRPPRLPRPRPRPHGHPRP  -0.113
91. RRIRCRPPRLPRPRPRPIMVPRP  -0.115
92. RRIRSRPPRLPRPRPRPIMPPRP  -0.121
93. RRIRERPPRLPRPRPRPGFCPRP  -0.122
94. RRIRPRPPRLPRPRPRPSCPPRP  -0.123
95. RRIRGRPPRLPRPRPRPYGVPRP  -0.128
96. RRIRHRPPRLPRPRPRPCWGPRP  -0.137
97. RRIRYRPPRLPRPRPRPMTRPRP  -0.139
98. RRIRHRPPRLPRPRPRPFKPPRP  -0.163
99. RRIRMRPPRLPRPRPRPIKDPRP  -0.165
100. RRIRVRPPRLPRPRPRPIKYPRP  -0.169
101. RRIRSRPPRLPRPRPRPNFHPRP  -0.171
102. RRIRCRPPRLPRPRPRPDHFPRP  -0.175
103. RRIRHRPPRLPRPRPRPLKSPRP  -0.178
104. RRIRYRPPRLPRPRPRPGQHPRP  -0.179
105. RRIRIRPPRLPRPRPRPFQWPRP  -0.192
106. RRIRFRPPRLPRPRPRPLKNPRP  -0.193
107. RRIRGRPPRLPRPRPRPIYYPRP  -0.197
108. RRIRFRPPRLPRPRPRPICPPRP  -0.208
109. RRIRDRPPRLPRPRPRPQNDPRP  -0.215
110. RRIRLRPPRLPRPRPRPLCSPRP  -0.223
111. RRIRKRPPRLPRPRPRPCPFPRP  -0.223
112. RRIRERPPRLPRPRPRPSVPPRP  -0.235
113. RRIRSRPPRLPRPRPRPWNTPRP  -0.237
114. RRIRDRPPRLPRPRPRPFIQPRP  -0.238
115. RRIRKRPPRLPRPRPRPYKSPRP  -0.243
116. RRIRFRPPRLPRPRPRPDMKPRP  -0.25
117. RRIRQRPPRLPRPRPRPVWYPRP  -0.254
118. RRIRLRPPRLPRPRPRPSKTPRP  -0.258
119. RRIRSRPPRLPRPRPRPCVVPRP  -0.266
120. RRIRSRPPRLPRPRPRPQQPPRP  -0.273
121. RRIRHRPPRLPRPRPRPSKDPRP  -0.293
122. RRIRDRPPRLPRPRPRPWHMPRP  -0.301
123. RRIRQRPPRLPRPRPRPTNVPRP  -0.302
124. RRIRIRPPRLPRPRPRPFCHPRP  -0.302
125. RRIRIRPPRLPRPRPRPRNLPRP  -0.306
126. RRIRKRPPRLPRPRPRPYTGPRP  -0.318
127. RRIRFRPPRLPRPRPRPDHFPRP  -0.331
128. RRIRIRPPRLPRPRPRPIVRPRP  -0.339
129. RRIRRRPPRLPRPRPRPLYHPRP  -0.353
130. RRIRCRPPRLPRPRPRPSTPPRP  -0.382
131. RRIRTRPPRLPRPRPRPRYVPRP  -0.426
132. RRIRCRPPRLPRPRPRPFNHPRP  -0.427
133. RRIRVRPPRLPRPRPRPKVYPRP  -0.433
134. RRIRCRPPRLPRPRPRPNFQPRP  -0.438
135. RRIRSRPPRLPRPRPRPDNTPRP  -0.44
136. RRIRERPPRLPRPRPRPFSNPRP  -0.441
137. RRIRNRPPRLPRPRPRPTITPRP  -0.455
138. RRIRYRPPRLPRPRPRPVHRPRP  -0.462
139. RRIRCRPPRLPRPRPRPYMVPRP  -0.462
140. RRIRVRPPRLPRPRPRPIIYPRP  -0.475
141. RRIRCRPPRLPRPRPRPYMIPRP  -0.582
142. RRIRYRPPRLPRPRPRPFITPRP  -0.709
143. RRIRYRPPRLPRPRPRPQLFPRP  -0.745
144. RRIRSRPPRLPRPRPRPYFLPRP  -0.885
145. RRIRHRPPRLPRPRPRPINDPRP  -0.887
146. RRIRFRPPRLPRPRPRPQFMPRP  -1.06
147. RRIRVRPPRLPRPRPRPYNNPRP  -1.16
148. RRIRIRPPRLPRPRPRPSFIPRP  -1.24
149. RRIRERPPRLPRPRPRPYMLPRP  -1.42
150. RRIRYRPPRLPRPRPRPGSHPRP  -1.48
